The text below walks through data of a protein production outcome set (Wang et al. 2014).

This data set is described as follows: label from the status in PepcDB records.
On to “MGAAKPIFVEHSIVIDRPAQQVYDYWRKLENLPQIMSHLESVTVLDDKRSRWVAKAPLGTHVEWEAEVVNDKPGERIGWHSLPGATVDNAGSVQFESLPDDKTRVHVALSYRPPAGPLGAAVAKLFGEEPSQQIAEDLQKFKATFEGLEHHHHHH”, for which the protein production entry is “failed”. “MGKKYSMRRRIWQAVIEIIIGTCLLILLLLGLTFFLRQIGQISGSETIRLSLDSDNLTISDIERDMKHYPYDYIIFDNDTSKILGGHYVKSDVPSFVASKQSSHNITEGEITYTYSSNKHFSVVLRQNSMPEFTNHTLRSISYNQFTYLFFFLGEIILIIFSVYHLIREFSKNFQAVQKIALKMGEITTFPEQEESKIIEFDQVLNNLYSKSKELAFLIEAERHEKHDLSFQVAALSHDVKTPLTVLKGNIELLEMTEVNEQQADFIESMKNSLTVFDKYFNTMISYTKLLNDENDYKATISLEDFLIDLSVELEELSTTYQVDYQLVKKTDLTTFYGNTLALSRALINIFVNACQYAKEGEKIVSLSIYDDEKYLYFEIWNNGHPFSEQAKKNAGKLFFTEDTGRSGKHYGIGLSFAQGVALKHQGNLILSNPQKGGAEVILKIKK”: the protein production entry was “failed”. On to “MTQLQQSVIESQPGKLSDYLGHTRRNRFSIRLFSGLIGFILVLAVMATGYWLVFASDRYVSEASVIIRKTDSVTAPSFDLSMLIAGVAGVNRADQLLLREYLLSVDMLKKLDTELDLHAHYSDEHYDLLSRMWLKDMEWFHRHYLSRVSIEYDDYAGVLRINAQAYDPEIARAISNLLVREGERYMNQISHELAETQVSFLTTQVNLAQLRFQQVRQKLLAYQNKKGLLSPQATVESLNTLIAKLEEQRAQLKTQLASLPRTLDRNHPNLVMLRQSLAAIDRQITDEKAKLANPTGKTLNITMEEFQRLEMEVTFAQELYKAALTALEKGRIDATRMLDKVSVLQAPTLPEYPMEPRRIYNTLVTLLFALMLAGILKLLEGIILDHVD”, for which the protein production result is recorded as “failed”.

On to “YLKLVRIYTKPKGQLPDYTSPVVLPYSRTTVEDFCMKIHKNLIKEFKYALVWGLSVKHNPQKVGKDHTLEDEDVIQIVKK”, for which the protein production entry is given as “not failed”. Take “EGDPENGEKLQITIRRGKDGFGFTICCDSPVRVQAVDSGGPAERAGLQQLDTVLQLNERPVEHWKCVELAHEIRSCPSEIILLVWRV”: the protein production entry is on record as “not failed”. To “MDVAGEKQQRKGEAIARIEAEKNAYTVAQLADEYFERMIAGRWKHPNIVRSRIEKDIKPAIGSLKVEDVKPRHIDDVLKAVMKRGAPSIANDTLRWLKRMFNYAIKRHIIEYNPAAAFLEHHHHHH” belongs “failed”; to “MTSYIILKHLHMTTAYLTITLFALRLLLDAVGRPGWRQTPLRFIPHINDTILLVAAIALVFVAGYASAMPGWLITKIVLLFGYIIAGVFALKTTVGKPARIVAAVLALVQVSAIFHLAMAKPF”, “failed”. Regarding “MQPGRSKAIPSRNASDKAYEPAVLLMRARVLHQQGQLDEARSAYKKVLKKAPDNFMALHFYALAEYQSGNAELGIKTLKRALLADPKSAQAQSDMGSMLIAVGRFADSLASCDKAIAIDPTLMLAYANRGLALSALARYEDAIASFDKAIELMPDRADTWNDRGNALHKLGRYTEALESYDKAIEIDPLSDVAFMNRAGTYKDLKQLDKALASYDRALSIGKRPVQAGLARAETLLFMRNVKDAMATCTAVLKVEPNSAIALTLLGNCMASLGDAETAIALHSRALELMPNYEAAISSKIFSMDFCAGSDVEAQQAVRSSWWTQIGAPIYRACATPPTNDRDPDRRLVVGYVSADFRAHSAAFSFRPVIEHHDHNQFEVVLYSGVVVPDDSTRAFEAIADKWRDATLMSDQGLADQIKEDKVDILVDLSGHSNGNRLRVFARKPAPVQVTAWGHATGTGLPVMDYLLGDPVAIPVEDRHFYAEAVYDLPSIVIIEPVPQQWRSLELPFDRNGYLTYGSLNRISKISDAAIEVWSQVLAASPTSRLILKDHQIDDPAVRQTLLEKFGARGIAAGRITLLGSSSRQDHLETLKQIDLCLDPFPQAGGVSTWEALHMGVPVVSRLGHTVPSRVGCAVLAAAGLPDFIAPNDARYIEIASKPELERLRSIRRGLRDFILQRCGPAAYTRAVEDAYRTMWKRWCAAPFDEAKDRALRRGR”, the protein production result is on record as “failed”. As for “MKLIKNGKVLQNGELQQADILIDGKVIKQIAPAIEPSNGVDIIDAKGHFVSPGFVDVHVHLREPGGEYKETIETGTKAAARGGFTTVCPMPNTRPVPDSVEHFEALQKLIDDNAQVRVLPYASITTRQLGKELVDFPALVKEGAFAFTDDGVGVQTASMMYEGMIEAAKVNKAIVAHCEDNSLIYGGAMHEGKRSKELGIPGIPNICESVQIARDVLLAEAAGCHYHVCHVSTKESVRVIRDAKRAGIHVTAEVTPHHLLLTEDDIPGNNAIYKMNPPLRSTEDREALLEGLLDGTIDCIATDHAPHARDEKAQPMEKAPFGIVGSETAFPLLYTHFVKNGDWTLQQLVDYLTIKPCETFNLEYGTLKENGYADLTIIDLDSEQEIKGEDFLSKADNTPFIGYKVYGNPILTMVEGEVKFEGDK”, the protein production result is given as “failed”. On to “MNEIITWILIVICLTQSAVFSGLTIGIFGLGRLRLEIEAEANNKNAIKILQVRRDSNFLLTTLLWGNVGVNVLIAQLTDSVMAGTFAFLFSTFGITCFGEIMPQAYFSRNALDIGAKLTPLVRFYQMLLYPVAKPTALVLDWWLGREKLELFREQAMRIMLEKHIESGKTDIGTFEGIGALNFLSIDDVSISDEGSIIDSRSIISLPVENNRPVFPPFNREPSDPFLQKIEASGKKWVIITSPENEPVMVLDADGFLRDAVYKKGPFLPLIYCHFPVVVKSPETRLEKVIRQFKVYPQYPEDDVIDQDLILYWGEEKRIITGSDILGRLLRGIVVECELGSGCEIPVPPSQPGFVRRTAFRRGKKKEIENLKRK”, for which the protein production entry was “not failed”. For “MIHADPESAMPAAYAATPFAQRLGLTLPVVQAPMAGVSTPALAAAVSNAGGLGSLGLGAMNADAARQAIALTREQTTRPFNVNLFCHAPATADAAREARWLQYLAPRFAEFDAQPPATLREVYTSFLADDDMFDMLLAERPEVVSLHFGLPPASRIAALRQAGIYLMATATDMREAARIAAAGVDAIVAQGIEAGGHRGMFDPAARDEQLGTLALTRLLARRFDAPVIAAGGIMDGAGVAAVLALGAQAAQLGTAFISCPESSADMPHRHALLDQAEVATTLTRAISGRPARSIANRYTELGAAADCPPTPDYPIAYDAGKALHAAARARGDASYAAQWAGQAAALSRGVPAATLMRQLQAELNDCIGRLAR” the value was “failed”; for “MKKSLIAFILIFMLVLSGCGMKDNDKQGSNDNGSSKSPYHRIVSLMPSNTEILYELGLGKYIVGVSTVDDYPKDVKKGKKQFDALNLNKEELLKAKPDLILAHESQKATANKVLSSLEKQGIKVVYVKDAQSIDETYNTFKQIGKLTHHDKQAEQLVEETKDNIDKVIDSIPAHHKKSKVFIEVSSKPEIYTAGKHTFFNDMLEKLEAQNVYSDINGWNPVTKESIIKKNPDILISTEAKTRSDYMDIIKKRGGFNKINAVKNTRIEVVNGDEVSRPGPRIDEGLKELRDAIYRK”, “failed”. In the case of “MSLSTWISYTIACILLISPPGPTVTYLITTSMTHGKKTAYEIVWGSFWGGLVCLILSFIGIGAILKTSGTLYAILRLLGIAYLIYLGIKSFLDANKVKDKTEKMVPPEKGEAFKNGFLLIFLNPKNIIFFASFLPQFINHNSPFLLQTTILSLTYLIVGLINDYLYSFFASNIGNVLGKHSEKWIAYIGGVAMILSAIIVVFQNF”, the protein production result is “failed”. “MSQYQRLLLIADPQQHQSPAARRAVALARASGAALHALVFVEPPARTYLWEEHLEDSEREAYLQRHERWLQVEAQWMAEEGVQVTTQVIWSTQVLKDMLAYIDEFRPDLLIKDVTLESALKRVFVTPLDCHLLREAPVPVHLVNDAPHKLPRRIVAAVDPAQSDTQIRGLNTQIIQTAHALALQCDAQLHLLYAYDLMPMLDGVAPVASTAWSVNCLDELRDSLHKEFERLGDEHNVPQEFRHFIMGPPVPGIAQFVDEYLVDVVVMGTVHRTGFGRLIGSTTERALYSMPGSILAVKASGAA”: the protein production entry was “failed”. Take “MIPYLYVLAAAFLWGTSFVAGKIAFGVADAPLIVLARFAMAGLFWLPVFCRSVRSVPSSRWGALLLLSFLMIPATFLLQFMGLQYTSATSATLMIGFEPLMVMLVGWLIWREQMTALHLLLGTVALAGVLLVMGWPSGANFLGCLLVLLSTVVVAIWVRWSKIWMQSLSVNAFTALTTVLGTIMLIPFALFLTNDWQVNLSTQGASALLYLGVGCSLGAGWLWNMGMRSIPANAGGMFLALEPIFGVIFAVALLYEPLGATTLAGIGLVVIPVLVISVLPVLQARRLPEAC”: the protein production result is listed as “failed”.

Consider “MPYKLTLEACTKCGTCAEACTMYLGSGRKKIYSPVYRSDMLRKIYKKHFTLTGKLFGPLIGAKDPTEDDINALAESAYRCTVCRRCALACPFGLDNGLITRETRKIFADLGILEHHHHHH”, for which the protein production entry was “not failed”. As for “MSTLPTPPRPRPVDIIIPVYKGLEETRLCLESVLATLPAADGLIVIDDHSPDPALVAYLKDRAAGDRRIRLLHNPENLGFVGTVNRGMALEPERDVLLLNSDTEVAGDWVARLRAAAYADRRIGTVTPFSNNATICSWPRFCQDNPLPPGLDVAGVDRAFAAANPGLSIDIPTGVGFAFYIRRDCLDEVGLFNAEAFGKGYGEENDFCRRAHHRGWRNVLAADTFVYHSGNVSFGVNQERLDSAMRQLLALHPDYRRVVQLHINQDPAQNMRWRAALGILRQSALPVLLFVTHNHGGGTLSHVHELAKALEGRAWGLLLTPGPRNTAVVTLPASLGGDALPFDLEQDWDGLLDLLRYAGVNRLHLHHMLGVPERLLDLPEQLSIPFDFTAHDFHAGCPRVMLCGPGSRYCGQPEERALCDACLAQAPKTEAGDITSWRAAMVARLSRAERLFAPSADTANRLKRMLPALSFRAIPHPDAQGLATNAPPPLLRPCGTTEPLRILVLGALSRAKGADLVEATAREAARGDLPLEIHLLGYGYRPLHRARGRLTAHGRYHPEEIAGHLERIAPHVAWLPAGWPETYSYTLSEVMAAGLPVVVSDLGAPPERILGRPLSWVLPWNVDASTAAAFFGRLRAGEIPASPEAPALSPQSTPRVDFYREGYLAEVFPEKARARLPEREIGELIGQALDRAGARRRRLQCWGDLKVVRQRIWRSLITLLAHPSLFPLVSRIPVSFQERLKRLIKG”, the protein production entry was “failed”. Regarding “MGNIYQITVEEKAEHQRTLSFEFSLHDDLFKLLEKVDGKMDMTPEQTQAFMVGLKLFGEVMMQQRKHPLFKEFSAPFRAFMMNLKKQ”, the protein production result is recorded as “not failed”.

As to “FVWHEYENAAEAAQSLADAVADALQGALDEKGGAVLAVSGGRSPIAFFNALSQKDLDWKNVGITLADERIVPTVHADSNTGLVREYLLKNKAEAAMWIPMVEDGKTETELHPDAVVDYALKHYKQPDVLVLGMGNDGHTASIFPKAPQFQTAIDGSAGVALVHTTPVTAPHERVSMTLDAIAHTGHVFLAIRGEEKKAVFDQAAQGENREYPINLVLNHQGVNCHV”, the protein production result is recorded as “failed”.

Turning to “MKIMKTFALSSIASAAMLFCSSALAADGTITVDGKVTDRTCTINGGTPNFSVTMPTVSFSSLNGEGKTSARTPFTIELTNCTAGSTVATYFEPGPAVDINTSRLINQAPTASAATNVQVQLLGSNGSVIPIKAVGTTGAQDNSQWVAVNASGAASMHYYTEYYATGVSTAGSVVTNIQYTIIYQ”, the protein production entry is “failed”.

“MFTGFGAASFSAPAKAAAQTNTLSENTNQSAAELVKNLYNTAYKGEMPQQAQGLTINKSTKGDVHAAFGEPERPVGGDNRFDLYHWNMGQPGYGFSYHKDMTISEIRYFGTGVERQLNLGGVTPEVLQKQLGPVNRVLTVPFTDEIDYVYDTGRYELHFVIGTDQTADHVNLKAKLEHHHHHH”: the protein production result was “not failed”. For “MKITVFGATGNVGNRVITEALLRGHEITAVLRNNARANEFDSSVKVVIGHADNVDDVVKWSDGQDLIISATRPPQGLESQLVDTAKALLSGLAQTKVRLLLVGGAASLTVPNSNGMLVVDDTDLVPTAWRDIALACLAQHKLCQENESVDWSYISPPAVIVPGERTGIFRTGSDELLVDEQGQSTISLEDFAIALLDEAEVVKHKRKRFTVAYLEHHHHHH”, the protein production entry is reported as “failed”.
